Test results from the supplement of paper PMC10567573.

B1: PTPRD (parent)
chain: LTKLREMGREKCHQYWPAERSARY

Variants of: B1
Experiment: protein stability index of a GFP-peptide fusion (GPS, HEK-293T) (PSI 1-6); higher = more stable
Settings: c terminus: a fixed tail appended
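Note: lentivirally expressed fusions sorted by FACS into six bins by GFP to DsRed ratio, PSI derived from sequencing read proportions per bin multiplied by bin number.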

Variant | protein stability index
LTKLREMGAEKCHQYWPAERSARY | 2.64
LTKLREMGDEKCHQYWPAERSARY | 3.48
LTKLREMGRERCHQYWPAERSARY | 2.26
LTKLREMGREICHQYWPAERSARY | 2.53
LTKLREMGRELCHQYWPAERSARY | 2.21
LTKLREMGREACHQYWPAERSARY | 3.23
LTKLREMGRENCHQYWPAERSARY | 2.74
LTKLREMGREGCHQYWPAERSARY | 2.61
LTKLREMGREHCHQYWPAERSARY | 2.4
LTKLREMGREPCHQYWPAERSARY | 2.6
LTKLREMGREECHQYWPAERSARY | 3.17
LTKLREMGREKHHQYWPAERSARY | 2.83
LTKLREMGREKWHQYWPAERSARY | 2.25
LTKLREMGREKFHQYWPAERSARY | 2.58
LTKLREMGREKKHQYWPAERSARY | 2.27
LTKLREMGREKEHQYWPAERSARY | 3.11
LTKLREMGREKDHQYWPAERSARY | 3.48
LTKLREMGREKPHQYWPAERSARY | 3.09
LTKLREMGREKAHQYWPAERSARY | 3.2
LTKLREMGREKCHQYFPAERSARY | 2.91
LTKLREMGREKCHQYQPAERSARY | 3.26
LTKLREMGREKCHQYVPAERSARY | 2.76
LTKLREMGREKCHQYDPAERSARY | 3.8
LTKLREMGREKCHQYLPAERSARY | 2.96

Variant | protein stability index
LTKLREMGREKCHQYCPAERSARY | 2.8
LTKLREMGREKCHQYTPAERSARY | 2.6
LTKLREMGREKCHQYIPAERSARY | 2.7
LTKLREMGREKCHQYSPAERSARY | 2.84
LTKLREMGREKCHAYWPAERSARY | 2.46
LTKLREMGREKCHEYWPAERSARY | 3.05
LTKLREMGREKCHPYWPAERSARY | 1.69
LTKLREMGREKCHDYWPAERSARY | 2.47
LTKLREMGREKCHKYWPAERSARY | 2.48
LTKLREMGREKCHFYWPAERSARY | 1.84
LTKLREMGREKCHHYWPAERSARY | 2.95
LTKLREMGREKCHMYWPAERSARY | 2.04
LTKLREMGREKCHGYWPAERSARY | 2.46
LTKLREMGREKCHRYWPAERSARY | 2.04
LTKLREMGREKCHVYWPAERSARY | 2.61
LTKLREMGREKCAQYWPAERSARY | 2.66
LTKLREMGREKCSQYWPAERSARY | 2.28
LTKLREMGREKCGQYWPAERSARY | 2.66
LTKLREMGREKCIQYWPAERSARY | 2.33
LTKLREMGREKCFQYWPAERSARY | 2.15
LTKLREMGREKCNQYWPAERSARY | 2.79
LTKLREMGREKCKQYWPAERSARY | 2.53
LTKLREMGREKCHQYWEAERSARY | 2.5
LTKLREMGREKCHQYWIAERSARY | 2.25

Variant | protein stability index
LTKLREMGREKCHQYWCAERSARY | 1.79
LTKLREMGREKCHQYWKAERSARY | 2.58
LTKLREMGREKCHQYWVAERSARY | 1.74
LTKQREMGREKCHQYWPAERSARY | 3.1
LTKPREMGREKCHQYWPAERSARY | 2.88
LTKKREMGREKCHQYWPAERSARY | 2.8
LTKHREMGREKCHQYWPAERSARY | 2.84
LTKIREMGREKCHQYWPAERSARY | 2.58
LTKAREMGREKCHQYWPAERSARY | 2.72
LTKFREMGREKCHQYWPAERSARY | 2.63
LTKGREMGREKCHQYWPAERSARY | 3.55
LTKEREMGREKCHQYWPAERSARY | 3.55
LTKLREMGREKCHQYWPAERSAHY | 2.26
LTKLREMGREKCHQYWPAERSAEY | 2.67
LTKLREMGREKCHQYWPAERSAKY | 2.49
LTKLREMGREKCHQYWPAERSAFY | 1.79
LTKLREMGREKCHQYWPAERSADY | 3.39
LTKLREMGREKCHQYWPAERSAPY | 3.02
LTKLREMGREKCHQYWPAERSTRY | 3.02
LTKLREMGREKCHQYWPAERSGRY | 2.33
LTKLREMGREKCHQYWPAERSPRY | 2.65
LTKLREMGREKCHQYWPAERSVRY | 2.64
LTKLREMGREKCHQYWPAERSLRY | 2.12
LTKLREMGREKCHQYWPAERSERY | 2.53

Variant | protein stability index
LTKLREMGREKCHQYWPAERSKRY | 2.65
LTKLREMGREKCHQYWPAERSMRY | 2.33
LTKLREMGREKCHQYWPAKRSARY | 2.75
LTKLREMGREKCHQYWPANRSARY | 2.46
LTKLREMGREKCHQYWPASRSARY | 2.29
LTKLREMGREKCHQYWPAMRSARY | 2.19
LTKLREMGREKCHQYWPAFRSARY | 2.29
LTKLREMGREKCHQYWPAHRSARY | 2.06
LTKLREMGREKCHQYWPADRSARY | 2.81
LTKLREMGREKCHQYWPATRSARY | 2.21
LTKLREMGREKCHQYWPAWRSARY | 2.15
LTKLREMGREKCHQYWPAERMARY | 1.96
LTKLREMGREKCHQYWPAERWARY | 1.94
LTKLREMGREKCHQYWPAERLARY | 1.96
LTKLREMGREKCHQYWPAERFARY | 2
LTKLREMGREKCHQYWPAERGARY | 1.91
LTKLREMGREKCHQHWPAERSARY | 3.41
LTKLREMGREKCHQMWPAERSARY | 2.53
LTKLREMGREKCHQQWPAERSARY | 2.79
LTKLREMGREKCHQDWPAERSARY | 3.31
LTKLREMGREKCHQLWPAERSARY | 2.46
LTKLREMGREKCHQPWPAERSARY | 2.64
